Marks after values point to notes of the source that are not given here.

The target of one series is IMP-1 (Serratia marcescens, UniProt P52699). Kind of series: biochemical.
The target of another series is T1, Bc II (Bacillus cereus, UniProt P04190).
T1 construct: made in house; host or cells: E. coli BL21(DE3) pLysS
Nature of the series: Bc II inhibition IC50, FC4 as reporter substrate. The format is biochemical. The text has this: (§1) Taking into account the aforementioned requirements,
(§2) absorbance from Greiner Bio-One were used.
(§3) Determination of the steady state kinetic
(§4) concentration using the same software.
(§5) Additional tests verified

The target of a further series is VIM-2 (Escherichia coli, UniProt Q5U7L7). Nature of the series: biochemical.
Series [1] deals with T2, SPM-1 (Pseudomonas aeruginosa, UniProt Q8G9Q0). Kind of series: SPM-1 inhibition (residual activity, IC50), FC4 as reporter substrate. The format is biochemical.
Excerpt: To achieve clinical utility, MBL inhibitors may need to act on more than one MBL subfamily. This is potentially challenging because of the generally low sequence similarity between MBLs of different subfamilies (B1, B2, B3). […] This set of compounds was selected as a result of their previously reported inhibition of metal-binding oxygenases.[51] […] In contrast, the compounds derivatized with a Trp, Leu, Asp, or Glu residue inhibited SPM-1, with the tryptophan-functionalized chloroisoquinolinols (S)-7d and (R)-7d giving the most promising results (3% and 8% residual activity (RA) at 200 μM, respectively).
as §1, §2, §3, §4, §5

In series [2] the target is T3, NDM-1 (Klebsiella pneumoniae, UniProt C7C422). Kind of series: biochemical.
Series [3] is described as follows: Autohydrolysis and storage stability of fluorogenic substrates. The settings on record: for period of use when stored as solids: solids at −20 °C; for time solutions could be used: solutions stored on ice. The format is physicochemical.
Series [4] deals with T2, SPM-1. Kind of series: biochemical.
Excerpt: as §1, §2, §3, §4

Series [5] deals with T3, NDM-1. The format is biochemical. Details: His-tag (3C protease cleavable) (N, cleaved yes); made in house; host or cells: E. coli BL21(DE3) pLysS. The conditions noted are these: substrate hydrolysis.
Excerpt: as §1, §2, §3, §4

Series [6] relates to O=C(Cc1cccs1)N[C@@H]1C(=O)N2C(C(=O)O)=C(/C=C/c3ccc([N+](=O)[O-])cc3[N+](=O)[O-])CS[C@H]12. Nature of the series: purified protein, by the assay type. The conditions noted are these: substrate hydrolysis.
Series [7] has as its system O=C(Cc1cccs1)N[C@@H]1C(=O)N2C(C(=O)O)=C(CSc3ccc([N+](=O)[O-])c(C(=O)O)c3)CS[C@H]12. Kind of series: purified protein, by the assay type. The settings on record: substrate hydrolysis.
Series [8] has as its system C[C@@H](O)[C@H]1C(=O)N2C(C(=O)O)=C(SCCN=CN)C[C@H]12. Kind of series: purified protein, by the assay type. The conditions noted are these: substrate hydrolysis.
The subject of series [9] is [H][C@@]12[C@H](NC(=O)Cc3ccccc3)C(=O)N1C(C(=O)O)=C(COc1ccc3ccc(=O)oc3c1)CS2(=O)=O. Nature of the series: purified protein, by the assay type. The settings on record: substrate hydrolysis.
The test system of series [10] is O=C(Cc1ccccc1)N[C@@H]1C(=O)N2C(C(=O)O)=C(COc3ccc4ccc(=O)oc4c3)C[S+]([O-])[C@H]12. Nature of the series: purified protein, by the assay type. The settings on record: substrate hydrolysis.
For series [11], the system named is O=C(Cc1ccccc1)N[C@@H]1C(=O)N2C(C(=O)O)=C(COc3ccc4ccc(=O)oc4c3)CS[C@H]12. Nature of the series: purified protein, by the assay type. The settings on record: other: NDM-1; substrate hydrolysis.

T3 sequence (C7C422 29-270 limits assumed): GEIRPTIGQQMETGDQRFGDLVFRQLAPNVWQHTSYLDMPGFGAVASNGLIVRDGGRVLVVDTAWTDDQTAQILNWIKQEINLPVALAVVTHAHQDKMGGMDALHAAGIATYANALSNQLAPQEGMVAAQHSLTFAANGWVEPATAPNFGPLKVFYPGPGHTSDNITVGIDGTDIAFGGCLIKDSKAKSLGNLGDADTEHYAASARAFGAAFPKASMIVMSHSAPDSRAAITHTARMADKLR
T2 sequence (Q8G9Q0 entry or part of it): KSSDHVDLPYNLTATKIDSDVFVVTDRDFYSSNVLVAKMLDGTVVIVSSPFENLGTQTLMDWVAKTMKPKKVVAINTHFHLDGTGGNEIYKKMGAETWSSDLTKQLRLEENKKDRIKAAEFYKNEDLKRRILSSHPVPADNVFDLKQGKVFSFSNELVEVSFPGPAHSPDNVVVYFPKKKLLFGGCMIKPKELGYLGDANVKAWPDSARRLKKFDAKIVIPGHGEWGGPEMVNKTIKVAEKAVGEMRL
Chain of IMP-1 (P52699 19-246 limits assumed): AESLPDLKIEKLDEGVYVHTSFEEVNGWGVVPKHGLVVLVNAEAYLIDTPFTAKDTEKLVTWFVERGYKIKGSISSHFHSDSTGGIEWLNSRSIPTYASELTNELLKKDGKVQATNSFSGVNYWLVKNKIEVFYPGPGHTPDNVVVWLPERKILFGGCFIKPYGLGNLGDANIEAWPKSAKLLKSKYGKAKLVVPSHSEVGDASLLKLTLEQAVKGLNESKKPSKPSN
T1 sequence (P04190 31-257): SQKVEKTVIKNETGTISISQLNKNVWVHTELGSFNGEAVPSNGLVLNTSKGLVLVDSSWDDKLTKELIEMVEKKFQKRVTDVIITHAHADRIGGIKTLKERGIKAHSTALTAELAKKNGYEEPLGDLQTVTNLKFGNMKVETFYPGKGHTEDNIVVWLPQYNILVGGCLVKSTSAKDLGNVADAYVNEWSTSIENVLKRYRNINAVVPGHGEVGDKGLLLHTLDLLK

Take `O=C(N[C@H](Cc1c[nH]c2ccccc12)C(=O)O)c1nc(Cl)c2ccccc2c1O` [(R)-7d]: the IC50 (as a rule, the concentration needed to halve the response being measured) was 74.1 ± 1.6 µM against IMP-1; 132.4 ± 1.3 µM against Bc II; 55.3 ± 1.3 µM against VIM-2; 46.6 ± 1.1 µM against SPM-1 [1]; 47.1 ± 1.1 µM on NDM-1 [2].

Consider `O=C(N[C@@H](Cc1c[nH]c2ccccc12)C(=O)O)c1nc(Cl)c2ccccc2c1O` [(S)-7d], for which the IC50 on IMP-1 is 75.6 ± 1.5 µM; against Bc II, 61.3 ± 1.3 µM; at VIM-2, 54.7 ± 1.4 µM; against SPM-1 [1], 23.2 ± 1.1 µM; against NDM-1 [2], 61.4 ± 1.3 µM.

In the case of `O=C(Cc1ccccc1)N[C@@H]1C(=O)N2C(C(=O)O)=C(COc3ccc4ccc(=O)oc4c3)CS[C@H]12` [FC3], in series [3] (buffer, room temperature, after 3 h), the autohydrolysis in buffer entry is recorded as “substantial hydrolysis”.

`O=C(Cc1ccccc1)N[C@@H]1C(=O)N2C(C(=O)O)=C(COc3ccc4ccc(=O)oc4c3)C[S+]([O-])[C@H]12` (stereo partly drawn) [FC4, (6R,7R)-8-Oxo-3-(((2-oxo-2H-chromen-7-yl)oxy)methyl)-7-(2-phenylacetamido)-5-thia-1-azabicyclo[4.2.0]oct-2-ene-2-carboxylic Acid 5-Oxide]: the “time stable in buffer (autohydrolysis study)” value in series [3] (buffer, room temperature) is “at least 8 h”. In [3], the “period of use when stored as solids” value is given as “months” and the “time solutions could be used” value fell in the range of 1 to 2 days.

On to `O=C(Cc1ccccc1)N[C@@H]1C(=O)N2C(C(=O)O)=C(COc3ccc4ccc(=O)oc4c3)CS(=O)(=O)[C@H]12` [FC5, (6R,7R)-8-Oxo-3-(((2-oxo-2H-chromen-7-yl)oxy)methyl)-7-(2-phenylacetamido)-5-thia-1-azabicyclo[4.2.0]oct-2-ene-2-carboxylic Acid 5,5-Dioxide], for which the “time stable in buffer (autohydrolysis study)” value in [3] (buffer, room temperature) is given as “at least 8 h”. Further, in [3], the “period of use when stored as solids” value is recorded as “months” and the “time solutions could be used” value is 1 to 2 days.

In the case of `O=C(Cc1cccs1)N[C@@H]1C(=O)N2C(C(=O)O)=C(/C=C/c3ccc([N+](=O)[O-])cc3[N+](=O)[O-])CS[C@H]12` [nitrocefin], the Ki at SPM-1 [4] (apparent Ki value for substrate/product inhibition, table footnote) is 36.6 µM. In addition, the Ki on SPM-1 [4] (concentration at which SPM-1 is inhibited by nitrocefin/nitrocefin-derived species, substrate or product inhibition) was determined as 36 µM. Moreover, at NDM-1 [5], the Km (as a rule, the concentration of substrate that gives half-maximal velocity) was 8.8 ± 1.1 µM and the kcat was 25.3 s^–1.

On to `O=C(O)c1ccc(O)cc1O` [β-Resorcylic acid, reference compound], for which the “RA 1 mM (residual activity on SPM-1)” value at SPM-1 [1] (compound at 1 mM, FC4 reporter substrate, 10 min preincubation) came to 76%.

Take BcII (Bacillus cereus): the Km in [6] (other: BcII) came to 8.1 ± 1.0 µM. The kcat in series [6] (other: BcII) turned out to be 14.9 s⁻¹; in series [7] (other: BcII) it was 8.9 s⁻¹. Besides, the kcat/Km (as a rule, the turnover number divided by the Michaelis constant) stood at 1.8e+06 M⁻¹ s⁻¹ in series [6] (other: BcII); 60000 M⁻¹ s⁻¹ in series [7] (other: BcII); 400000 M⁻¹ s⁻¹ in series [8] (other: BcII); 3.7e+06 M⁻¹ s⁻¹ in series [9] (other: BcII); 700000 M⁻¹ s⁻¹ in [10] (other: BcII).

For IMP-1 (Serratia marcescens), the Km in [6] (other: IMP-1) is 55.7 ± 4.8 µM. In addition, the kcat in [6] (other: IMP-1) amounted to 2790 s⁻¹; in series [8] (other: IMP-1), 1200 s⁻¹. The kcat/Km came to 5.02e+07 M⁻¹ s⁻¹ in series [6] (other: IMP-1); 2.53e+07 M⁻¹ s⁻¹ in [7] (other: IMP-1); 2.81e+07 M⁻¹ s⁻¹ in series [8] (other: IMP-1); 5.17e+08 M⁻¹ s⁻¹ in series [9] (other: IMP-1); 8.07e+08 M⁻¹ s⁻¹ in [10] (other: IMP-1).

Take NDM-1 (Klebsiella pneumoniae): the kcat/Km in series [11] came out at 5.8e+06 M⁻¹ s⁻¹; in series [8] (other: NDM-1), 3.6e+06 M⁻¹ s⁻¹; in series [9] (other: NDM-1), 1.24e+08 M⁻¹ s⁻¹; in series [10] (other: NDM-1) it was 3.2e+07 M⁻¹ s⁻¹. Further, the results for the Km in [9] (other: NDM-1) and in [10] (other: NDM-1) were 2.4 ± 0.2 µM and 4.0 ± 0.8 µM, respectively.

For the molecule SPM-1 (Pseudomonas aeruginosa), the Km was 16.0 ± 3.7 ^c μM in series [6] (other: SPM-1), 2.7 ± 0.2 µM in series [9] (other: SPM-1) and 2.5 ± 0.2 µM in [10] (other: SPM-1). Besides, the kcat in series [6] (other: SPM-1) was 0.7 s⁻¹; in series [7] (other: SPM-1), 6.1 s⁻¹; in [10] (other: SPM-1) it was 8.7 s⁻¹. The kcat/Km was 40000 M⁻¹ s⁻¹ in series [6] (other: SPM-1); 200000 M⁻¹ s⁻¹ in series [7] (other: SPM-1); 100000 M⁻¹ s⁻¹ in series [8] (other: SPM-1); 1.03e+07 M⁻¹ s⁻¹ in series [9] (other: SPM-1); 3.5e+06 M⁻¹ s⁻¹ in [10] (other: SPM-1).

Regarding VIM-2 (Escherichia coli), the values for the Km in [6] (other: VIM-2) and in [10] (other: VIM-2) were 7.2 ± 0.6 µM and 6.3 ± 0.4 µM, respectively. Besides, the kcat in [6] (other: VIM-2) stood at 226 s⁻¹. The kcat/Km is 3.12e+07 M⁻¹ s⁻¹ in [6] (other: VIM-2); 1.8e+06 M⁻¹ s⁻¹ in series [7] (other: VIM-2); 1.1e+06 M⁻¹ s⁻¹ in series [8] (other: VIM-2); 1.91e+07 M⁻¹ s⁻¹ in series [9] (other: VIM-2); 2e+07 M⁻¹ s⁻¹ in series [10] (other: VIM-2).

The values are drawn from PMC3910272, “Assay Platform for Clinically Relevant Metallo-β-lactamases” (Journal of Medicinal Chemistry, 2013).
